According to publication PMC8764538:

test system: T1, LuxT-6xHis (Vibrio harveyi BB120 (ATCC BAA-1116; reclassified Vibrio campbellii BB120)?), ORF:7f3e8717; assay: EMSA; details: EMSA: 20 nM DNA probe, LuxT-6xHis dimer 20-320 nM (1x-16x); buffer, salt, pH and temperature not given (described in cited ref 18)
T1 sequence: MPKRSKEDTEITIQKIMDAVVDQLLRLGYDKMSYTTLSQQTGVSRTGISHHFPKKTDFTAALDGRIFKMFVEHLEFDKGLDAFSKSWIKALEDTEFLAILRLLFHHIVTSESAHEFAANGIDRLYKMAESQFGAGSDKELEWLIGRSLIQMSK

Sequence | binding
GTTTGATCTGCTTAATAAATCTGGTTAAAAGTTATTAATTAACTTTAAAAAAATAACCCAAGATACTAGTGTTTTTTCAAATTCAAAGGAGAAGCTCTTGATATGGA (double strand) [PluxC control probe] | no binding
TGGCATATTTTAAGCTCTTCTCTTTGTAAATCCATCTAACTCACATTTAAATGAGGCCAGAATGAAATCATCCTCAGCATTATGTATTGTATGTCCTTG (double strand) [PluxT promoter probe] | binds
AATCATCAGTTCAATAAAAAAGAGGGCTTCAGCCCTCTTTTTTTATATATTTAATCTTGCCCTCATAATCAGTACGCTGTATTATCAATTACAACCGAACTACGTACTGTTTA (double strand) [PswrZ promoter probe] | binds
